Results from publication PMC10881500, “Structure-guided engineering of immunotherapies targeting TRBC1 and TRBC2 in T cell malignancies” (Nature Communications, 2024).
Read-outs that look alike come from different tables or passages of the source.

Columns and labels:
[1] = target: T1, Recombinant, purified TRBC1 (soluble αβ TCR with the β-chain constant domain TRBC1), SPR analyte (Homo sapiens, HA1.7 TCR with TRBC1)
Target sequence in this assay (main, as listed by the source, chain 1 of 2): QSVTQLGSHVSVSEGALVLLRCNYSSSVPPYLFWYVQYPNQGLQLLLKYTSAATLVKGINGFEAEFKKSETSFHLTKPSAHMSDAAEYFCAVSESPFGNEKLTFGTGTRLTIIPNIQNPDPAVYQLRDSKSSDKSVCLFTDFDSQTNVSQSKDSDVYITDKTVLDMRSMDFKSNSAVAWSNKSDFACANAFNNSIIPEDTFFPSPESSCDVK
Target sequence in this assay (partner, as listed by the source, chain 2 of 2): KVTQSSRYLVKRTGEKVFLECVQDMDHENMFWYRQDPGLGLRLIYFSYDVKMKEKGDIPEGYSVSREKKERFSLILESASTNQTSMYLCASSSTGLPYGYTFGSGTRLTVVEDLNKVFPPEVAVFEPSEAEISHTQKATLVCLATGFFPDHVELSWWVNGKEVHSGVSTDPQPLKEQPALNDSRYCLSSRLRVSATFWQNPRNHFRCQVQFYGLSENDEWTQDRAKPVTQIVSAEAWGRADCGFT

[2] = target: T2, TCR with the TRBC1 β-chain constant domain, on cells (Homo sapiens, UniProt P01848;P01850)
Target sequence in this assay (P01848 whole entry, chain 1 of 2, the tested form may be a part): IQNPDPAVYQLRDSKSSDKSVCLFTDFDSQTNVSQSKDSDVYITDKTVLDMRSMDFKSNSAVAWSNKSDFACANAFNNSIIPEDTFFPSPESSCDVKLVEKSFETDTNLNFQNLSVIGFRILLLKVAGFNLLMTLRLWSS
Target sequence in this assay (P01850 whole entry, chain 2 of 2, the tested form may be a part): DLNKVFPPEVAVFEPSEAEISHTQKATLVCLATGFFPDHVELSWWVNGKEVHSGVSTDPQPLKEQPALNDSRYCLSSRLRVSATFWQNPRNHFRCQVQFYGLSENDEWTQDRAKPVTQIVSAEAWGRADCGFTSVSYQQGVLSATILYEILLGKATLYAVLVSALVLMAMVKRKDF

[3] = target: T1, Recombinant, purified TRBC1 (soluble αβ …); assay: SPR; Biacore T200; antibody as human IgG1 captured with an anti-human capture kit on CM5 to 200 RU; TRBC1 or TRBC2 as analyte, 150 s contact, 300 s dissociation, 30 μl/min, 25 °C, HBS-P+ pH 7.4; 1:1 Langmuir model; conditions: both partners purified
[4] = target: T3, Recombinant, purified TRBC2 (soluble αβ TCR with the β-chain constant domain TRBC2), SPR analyte (Homo sapiens, HA1.7 TCR with TRBC2); assay: as above; conditions: both partners purified
T3 construct: also called recombinant TRBC2; source: recombinant, purified

[5] = target: T2, TCR with the TRBC1 β-chain constant …; assay: flow cytometry on cells; HPB-ALL TRBC1, HPB-ALL TRBC2 or HPB-ALL TCR KO cells; titration of IgG from 10 μg/ml in 2-fold dilutions, 30 min RT; anti-human IgG Alexa Fluor 647; conditions: one partner purified
Target sequence in this assay (P01850 whole entry, looked up, chain 1 of 2, the tested form may be a part): as the sequence (P01850 whole entry, chain 2 of 2, the tested form may be a part) above
Target sequence in this assay (P01848 whole entry, looked up, chain 2 of 2, the tested form may be a part): as the sequence (P01848 whole entry, chain 1 of 2, the tested form may be a part) above

[6] = target: T1, Recombinant, purified TRBC1 (soluble αβ …); assay: SPR; Biacore T200; scFv-Fc captured on a Series S Protein A chip to 50 RU; TRBC1 or TRBC2 as analyte, 150 s contact, 500 s dissociation, 30 μl/min, 25 °C, HBS-P+ pH 7.4; 1:1 Langmuir model; conditions: both partners purified
[7] = target: TCR with the TRBC2 β-chain constant domain, on cells (Homo sapiens, UniProt P01848;A0A5B9); assay: flow cytometry on cells; staining of TCR+ cell lines with HuJovi-1 or KFN; conditions: one partner purified
[8] = target: T3, Recombinant, purified TRBC2 (soluble αβ …); assay: not stated; bi-paratopic (avid) engagement allowed; Supplementary Fig. 12
[9] = target: T3, Recombinant, purified TRBC2 (soluble αβ …); assay: SPR; Biacore T200; scFv-Fc captured on a Series S Protein A chip to 50 RU; TRBC1 or TRBC2 as analyte, 150 s contact, 500 s dissociation, 30 μl/min, 25 °C, HBS-P+ pH 7.4; 1:1 Langmuir model; conditions: both partners purified

Chain of TCR with the TRBC2 β-chain constant domain, on cells (A0A5B9 whole entry, looked up, chain 1 of 2, the tested form may be a part): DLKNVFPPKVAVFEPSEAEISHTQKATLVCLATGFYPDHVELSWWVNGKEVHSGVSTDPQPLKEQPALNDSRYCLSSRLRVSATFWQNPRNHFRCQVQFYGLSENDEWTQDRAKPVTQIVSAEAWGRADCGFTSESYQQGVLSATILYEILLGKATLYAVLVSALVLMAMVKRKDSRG
Chain of TCR with the TRBC2 β-chain constant domain, on cells (P01848 whole entry, looked up, chain 2 of 2, the tested form may be a part): as the sequence (P01848 whole entry, chain 1 of 2, the tested form may be a part) above

Row | Binder | Kd [3] [nM] | koff [3] [s⁻¹] | Kd [4] [nM] | koff [4] [s⁻¹] | also measured
1 | MuJovi-1 (antibody, V domains shown) VH: EVRLQQSGPDLIKPGASVKMSCKASGYTFTGYVMHWVKQRPGQGLEWIGFINPYNDDIQSNERFRGKATLTSDKSSTTAYMELSSLTSEDSAVYYCARGAGYNFDGAYRFFDFWGQGTTLTVSS VL: DVVMTQSPLSLPVSLGDQASISCRSSQRLVHSNGNTYLHWYLQKPGQSPKLLIYRVSNRFPGVPDRFSGSGSGTDFTLKISRVEAEDLGIYFCSQSTHVPYTFGGGTKLEIK |  |  |  |  | Kd [1]: 1.6 nM; binding result [2]: binds
2 | Mut6 (HuJovi-1 VH A96N), human IgG1 (antibody, V domains shown, as the VH of m1 with the stated change; positions in Kabat numbering; constant region of the human IgG1 heavy chain; as the light chain of m1; IgG1; source: ExpiCHO, transient transfection, purified (MabSelect SuRe)) VH: QVQLVQSGAEVKKPGASVKVSCKASGYTFTGYVMHWVRQAPGQGLEWMGFINPYNDDIQSNERFRGRVTMTRDTSISTAYMELSRLRSDDTAVYYCARGNGYNFDGAYRFFDFWGQGTMVTVSS VL: DIVMTQSPLSLPVTPGEPASISCRSSQRLVHSNGNTYLHWYLQKPGQSPRLLIYRVSNRFPGVPDRFSGSGSGTDFTLKISRVEAEDVGVYYCSQSTHVPYTFGQGTKLEIK | 13.8 | 0.00197 | 379 | 0.00194 | 
3 | Mut5 (HuJovi-1 VH Y32F), human IgG1 (antibody, V domains shown, as the VH of m1 with the stated change; positions in Kabat numbering; constant region of the human IgG1 heavy chain; as the light chain of m1; IgG1; source: ExpiCHO, transient transfection, purified (MabSelect SuRe)) VH: QVQLVQSGAEVKKPGASVKVSCKASGYTFTGFVMHWVRQAPGQGLEWMGFINPYNDDIQSNERFRGRVTMTRDTSISTAYMELSRLRSDDTAVYYCARGAGYNFDGAYRFFDFWGQGTMVTVSS VL: DIVMTQSPLSLPVTPGEPASISCRSSQRLVHSNGNTYLHWYLQKPGQSPRLLIYRVSNRFPGVPDRFSGSGSGTDFTLKISRVEAEDVGVYYCSQSTHVPYTFGQGTKLEIK | 426 | 0.0457 |  |  | 
4 | Mut7 (HuJovi-1 VH T28K, A96N), human IgG1 (antibody, V domains shown, as the VH of m1 with the stated changes; positions in Kabat numbering; constant region of the human IgG1 heavy chain; as the light chain of m1; IgG1; source: ExpiCHO, transient transfection, purified (MabSelect SuRe)) VH: QVQLVQSGAEVKKPGASVKVSCKASGYKFTGYVMHWVRQAPGQGLEWMGFINPYNDDIQSNERFRGRVTMTRDTSISTAYMELSRLRSDDTAVYYCARGNGYNFDGAYRFFDFWGQGTMVTVSS VL: DIVMTQSPLSLPVTPGEPASISCRSSQRLVHSNGNTYLHWYLQKPGQSPRLLIYRVSNRFPGVPDRFSGSGSGTDFTLKISRVEAEDVGVYYCSQSTHVPYTFGQGTKLEIK | 36.5 | 0.00524 | 395 | 0.166 | 
5 | RFN (Mut4; HuJovi-1 VH T28R, Y32F, A96N), human IgG1 (antibody, V domains shown, as the VH of m1 with the stated changes; positions in Kabat numbering; constant region of the human IgG1 heavy chain; as the light chain of m1; IgG1 in the SPR; also called Arg28/Phe32/Asn96; source: ExpiCHO, transient transfection, purified (MabSelect SuRe)) VH: QVQLVQSGAEVKKPGASVKVSCKASGYRFTGFVMHWVRQAPGQGLEWMGFINPYNDDIQSNERFRGRVTMTRDTSISTAYMELSRLRSDDTAVYYCARGNGYNFDGAYRFFDFWGQGTMVTVSS VL: DIVMTQSPLSLPVTPGEPASISCRSSQRLVHSNGNTYLHWYLQKPGQSPRLLIYRVSNRFPGVPDRFSGSGSGTDFTLKISRVEAEDVGVYYCSQSTHVPYTFGQGTKLEIK | 1440 | 0.125 | 582 | 0.045 | 
6 | HuJovi-1 (humanized Jovi-1), human IgG1 (antibody, V domains shown, VH of HuJovi-1 (CDRs of Jovi-1 grafted on IGHV1-2*02); constant region of the human IgG1 heavy chain; whole light chain (CDRs of Jovi-1 grafted on IGKV2-29*02, kappa constant from the AbVec kappa vector); IgG1; The section on CDR grafting names HEK293T as host, the section on antibody expression ExpiCHO; also called aTRBC1; source: ExpiCHO, transient transfection, purified (MabSelect SuRe)) VH: QVQLVQSGAEVKKPGASVKVSCKASGYTFTGYVMHWVRQAPGQGLEWMGFINPYNDDIQSNERFRGRVTMTRDTSISTAYMELSRLRSDDTAVYYCARGAGYNFDGAYRFFDFWGQGTMVTVSS VL: DIVMTQSPLSLPVTPGEPASISCRSSQRLVHSNGNTYLHWYLQKPGQSPRLLIYRVSNRFPGVPDRFSGSGSGTDFTLKISRVEAEDVGVYYCSQSTHVPYTFGQGTKLEIK | 2.57 | 0.000618 |  |  | binding result [5]: binds
7 | HuJovi-1 scFv-Fc (scFv, V domains shown, scFv of HuJovi-1: VH and VL as in m1 (PDB 7AMP, 7AMQ); scFv-Fc with a murine IgG2a Fc; captured on a Protein A chip; source: ExpiCHO, transient transfection, purified (MabSelect SuRe)) VH: QVQLVQSGAEVKKPGASVKVSCKASGYTFTGYVMHWVRQAPGQGLEWMGFINPYNDDIQSNERFRGRVTMTRDTSISTAYMELSRLRSDDTAVYYCARGAGYNFDGAYRFFDFWGQGTMVTVSS VL: DIVMTQSPLSLPVTPGEPASISCRSSQRLVHSNGNTYLHWYLQKPGQSPRLLIYRVSNRFPGVPDRFSGSGSGTDFTLKISRVEAEDVGVYYCSQSTHVPYTFGQGTKLEIK |  |  |  |  | Kd [6]: 7.51 nM; koff [6]: 0.003 s⁻¹
8 | Mut2 (HuJovi-1 VH T28K, Y32F), human IgG1 (antibody, V domains shown, as the VH of m1 with the stated changes; positions in Kabat numbering; constant region of the human IgG1 heavy chain; as the light chain of m1; IgG1; also called Lys28/Phe32; Thr28Lys, Tyr32Phe double mutant; source: ExpiCHO, transient transfection, purified (MabSelect SuRe)) VH: QVQLVQSGAEVKKPGASVKVSCKASGYKFTGFVMHWVRQAPGQGLEWMGFINPYNDDIQSNERFRGRVTMTRDTSISTAYMELSRLRSDDTAVYYCARGAGYNFDGAYRFFDFWGQGTMVTVSS VL: DIVMTQSPLSLPVTPGEPASISCRSSQRLVHSNGNTYLHWYLQKPGQSPRLLIYRVSNRFPGVPDRFSGSGSGTDFTLKISRVEAEDVGVYYCSQSTHVPYTFGQGTKLEIK | 387 | 0.0689 | 999 | 0.125 | 
9 | KFN (Mut3; HuJovi-1 VH T28K, Y32F, A96N), human IgG1 (antibody, V domains shown, VH of KFN: as the VH of m1 (PDB 7AMP, 7AMQ) with the stated changes, positions in Kabat numbering; constant region of the human IgG1 heavy chain; as the light chain of m1; IgG1; also called Lys28/Phe32/Asn96; aTRBC2; source: ExpiCHO, transient transfection, purified (MabSelect SuRe)) VH: QVQLVQSGAEVKKPGASVKVSCKASGYKFTGFVMHWVRQAPGQGLEWMGFINPYNDDIQSNERFRGRVTMTRDTSISTAYMELSRLRSDDTAVYYCARGNGYNFDGAYRFFDFWGQGTMVTVSS VL: DIVMTQSPLSLPVTPGEPASISCRSSQRLVHSNGNTYLHWYLQKPGQSPRLLIYRVSNRFPGVPDRFSGSGSGTDFTLKISRVEAEDVGVYYCSQSTHVPYTFGQGTKLEIK |  |  | 479 | 0.0386 | binding result [7]: binds; fold affinity differential TRBC1:TRBC2 with bi-paratopic engagement [8]: > 100 fold
10 | Mut1 (HuJovi-1 VH T28K), human IgG1 (antibody, V domains shown, as the VH of m1 with the stated change; positions in Kabat numbering; constant region of the human IgG1 heavy chain; as the light chain of m1; IgG1; also called Lys28 mutant; Thr28Lys; source: ExpiCHO, transient transfection, purified (MabSelect SuRe)) VH: QVQLVQSGAEVKKPGASVKVSCKASGYKFTGYVMHWVRQAPGQGLEWMGFINPYNDDIQSNERFRGRVTMTRDTSISTAYMELSRLRSDDTAVYYCARGAGYNFDGAYRFFDFWGQGTMVTVSS VL: DIVMTQSPLSLPVTPGEPASISCRSSQRLVHSNGNTYLHWYLQKPGQSPRLLIYRVSNRFPGVPDRFSGSGSGTDFTLKISRVEAEDVGVYYCSQSTHVPYTFGQGTKLEIK | 6.69 | 0.001 | 7480 | 0.585 | 
11 | KFN scFv-Fc (scFv, V domains shown, scFv of KFN: VH and VL as in m6 (PDB 7AMS, 7AMR), that is the VH of m1 with the stated changes (Kabat numbering); scFv-Fc with a murine IgG2a Fc; captured on a Protein A chip; source: ExpiCHO, transient transfection, purified (MabSelect SuRe)) VH: QVQLVQSGAEVKKPGASVKVSCKASGYKFTGFVMHWVRQAPGQGLEWMGFINPYNDDIQSNERFRGRVTMTRDTSISTAYMELSRLRSDDTAVYYCARGNGYNFDGAYRFFDFWGQGTMVTVSS VL: DIVMTQSPLSLPVTPGEPASISCRSSQRLVHSNGNTYLHWYLQKPGQSPRLLIYRVSNRFPGVPDRFSGSGSGTDFTLKISRVEAEDVGVYYCSQSTHVPYTFGQGTKLEIK |  |  |  |  | Kd [9]: 1170 nM; koff [9]: 0.0995 s⁻¹
